Test results from patent publication US8445246B2, “Flavin-binding glucose dehydrogenases” (Kikkoman Corporation, priority 2009, dated 2013).

Columns and labels:
[1] = GDH activity measurement (PMS/DCIP, absorbance at 600 nm); format: biochemical; conditions: purified enzymes / commercial GOD
Protocol: Specifically, the activity of the flavin-binding GDH is measured in the following manner, according to the invention. A mixture of 1.79 mL of 100 mM phosphate buffer (pH 7.0), 0.08 mL of a 1.25 M D-glucose solution and 0.01 mL of a 20 mM DCIP solution is warmed at 37° C. for 5 minutes. Next, 0.02 mL of a 20 mM PMS solution and 0.1 mL of an enzyme sample solution are added, and reaction is initiated. The absorbance is measured at the start of the reaction and periodically thereafter, the reduction in absorbance at 600 nm per minute (ΔA600) as the enzyme reaction proceeds is determined, and the flavin-binding GDH activity is calculated by the following formula. […]
The value of 2.0 in the formula is the liquid volume (mL) of reaction reagent+enzyme reagent, 16.3 is the millimolar molecular absorption coefficient (cm^2/μmol) under the activity measuring conditions, 0.1 is the liquid volume (mL) of the enzyme solution, 1.0 is the optical path length (cm) of the cell, ΔA600blank is the reduction in absorbance at 600 nm per minute, when the reaction is initiated by addition of 10 mM acetate buffer instead of the enzyme sample solution, and df represents the degree of dilution.
Each solution was combined by the procedure described below, and the absorbance was measured to determine the GDH activity of the crude enzyme solution. […]

[2] = GOD activity measurement (4-AA/TOOS/POD, absorbance at 555 nm); format: biochemical; conditions: 131 mM D-glucose, 37° C.
Protocol: The GDH activity was measured according to the method of Example 1, and GOD activity was measured by the following method using 4-aminoantipyrine (4-AA) and N-ethyl-N-(2-hydroxy-3-sulfopropyl)-3-methylaniline (TOOS). After mixing 30.0 mL of 100 mM phosphate buffer (pH 7.0), 6.0 mL of an 833 mM D-glucose solution, 0.3 mL of a 25 mM 4-AA solution, 0.3 mL of a 40 mM TOOS solution and 0.3 mL of a 500 U/mL, POD solution, 3.0 mL of the mixture was transferred to a test tube and warmed at 37° C. for 5 minutes, after which 0.1 mL of enzyme sample solution was added and reaction was initiated. The increase in absorbance at 555 nm per minute (ΔA555) was measured as the enzyme reaction proceeded, and the GOD activity was calculated by the formula shown below. […]
The value of 3.1 in the formula is the liquid volume (mL) of reaction reagents+enzyme reagent, 32.8 is the millimolar molecular absorption coefficient (cm^2/μmol) under the activity measuring conditions, 0.5 is the number of molecules of quinoneimine dye produced when 1 molecule of H2O2 is reduced, 0.1 is the liquid volume (mL) of the enzyme solution, 1.0 is the optical path length (cm) of the cell, ΔA555blank is the increase in absorbance at 555 nm per minute, when the reaction is initiated by addition of 10 mM acetate buffer instead of the enzyme sample solution, and df represents the degree of dilution.

B1: Aspergillus niger-derived GOD: commercially available glucose oxidase derived from Aspergillus niger (GOD, product of Biozyme Laboratories) (protein, UniProt P13006 17-605, looked up)
Glucose oxidase: LPHYIRSNGIEASLLTDPKDVSGRTVDYIIAGGGLTGLTTAARLTENPNISVLVIESGSYESDRGPIIEDLNAYGDIFGSSVDHAYETVELATNNQTALIRSGNGLGGSTLVNGGTWTRPHKAQVDSWETVFGNEGWNWDNVAAYSLQAERARAPNAKQIAAGHYFNASCHGVNGTVHAGPRDTGDDYSPIVKALMSAVEDRGVPTKKDFGCGDPHGVSMFPNTLHEDQVRSDAAREWLLPNYQRPNLQVLTGQYVGKVLLSQNGTTPRAVGVEFGTHKGNTHNVYAKHEVLLAAGSAVSPTILEYSGIGMKSILEPLGIDTVVDLPVGLNLQDQTTATVRSRITSAGAGQGQAAWFATFNETFGDYSEKAHELLNTKLEQWAEEAVARGGFHNTTALLIQYENYRDWIVNHNVAYSELFLDTAGVASFDVWDLLPFTRGYVHILDKDPYLHHFAYDPQYFLNELDLLGQAAATQLARNISNSGAMQTYFAGETIPGDNLAYDADLSAWTEYIPYHFRPNYHGVGTCSMMPKEMGGVVDNAARVYGVQGLRVIDGSIPPTQMSSHVMTVFYAMALKISDAILEDYASMQ
- GDH activity [1]: 3.50 U/mL
- GOD activity [2]: 9.38 U/mL
